Numbering of substitutions follows the chain as printed. Numbers in names are those of the source. Where two headings read alike, the source gives them in different places.

Data on three molecules can be found in publication PMC5984683 (Cancer research, 2018).

Test [1] has as its target T1, full-length recombinant Fzd7 (human, UniProt O75084 33-574). In words: co-IP.
For test [2], the target named is T1, full-length recombinant Fzd7. In words: co-IP. The source holds these as a separate data set.

B1: full length recombinant TG2 (enzyme, UniProt P21980 1-687, looked up)
chain: MAEELVLERCDLELETNGRDHHTADLCREKLVVRRGQPFWLTLHFEGRNYEASVDSLTFSVVTGPAPSQEAGTKARFPLRDAVEEGDWTATVVDQQDCTLSLQLTTPANAPIGLYRLSLEASTGYQGSSFVLGHFILLFNAWCPADAVYLDSEEERQEYVLTQQGFIYQGSAKFIKNIPWNFGQFEDGILDICLILLDVNPKFLKNAGRDCSRRSSPVYVGRVVSGMVNCNDDQGVLLGRWDNNYGDGVSPMSWIGSVDILRRWKNHGCQRVKYGQCWVFAAVACTVLRCLGIPTRVVTNYNSAHDQNSNLLIEYFRNEFGEIQGDKSEMIWNFHCWVESWMTRPDLQPGYEGWQALDPTPQEKSEGTYCCGPVPVRAIKEGDLSTKYDAPFVFAEVNADVVDWIQQDDGSVHKSINRSLIVGLKISTKSVGRDEREDITHTYKYPEGSSEEREAFTRANHLNKLAEKEETGMAMRIRVGQSMNMGSDFDVFAHITNNTAEEYVCRLLLCARTVSYNGILGPECGTKYLLNLNLEPFSEKSVPLCILYEKYRDCLTESNLIKVRALLVEPVINSYLLAERDLYLENPEIKIRILGEPKQKRKLVAEVSLQNPLPVALEGCTFTVEGAGLTEEQKTVEIPDPVEAGEEVKVRMDLLPLHMGLHKLVVNFESDKLKAVKGFRNVIIGPA
Regarding B1, the binding result in test [1] is listed as “binds”.

B2: recombinant mutant TG2 (C277A) (enzyme)
chain: B1 chain with C277A
With B2, the binding result in test [1] is “binds”.

DAVEEGDWTATVVDQQDCTLSLQLTTPANA [TG2 peptide 81[residues removed]110]: the binding result in test [2] was “binds”.
